Source: patent publication US20110250670A1, “LIGHT ENERGY-INDUCED STABILITY OF BIOMATERIALS” (University of Calcutta, priority 2010, published 2011)

Assays:
Type in all cases: physicochemical
[1] = Dithiothreitol induced aggregation of insulin (absorption at 360 nm); settings: 0.1 mg/ml, DTT 20 mM, 40° C., He-Ne laser 632.8 nm, 0.63 watts/cm^2
Source text: (§1) In this Example, the effects of light energy on the aggregation of a labile biomolecule in aqueous solution were examined. The device included a heating element and a laser, as depicted in FIG. 2. The laser operated at 632.8 nm, in the red portion of the spectrum, with a power density of 0.63 watts/cm^2. The 180 degree scattering at 360 nm (in terms of OD at 360 nm) was taken to measure the extent of aggregation because it is well-known that this scattering is a measure of the propensity of a protein to form aggregate. Aggregation of proteins of the reference samples was taken as 100% and the aggregation of laser-treated proteins in the test samples was calculated relative to the 100% aggregation of the reference samples.
Dithiothreitol induced aggregation of insulin. Insulin was purchased from ICN and a stock solution of insulin (0.5 mg/ml) was prepared by mixing with 100 mM phosphate buffer of pH 7.2. Disulphide linkages of insulin (0.1 mg/ml) were reduced by dithiothreitol (DTT, 20 mM), which leads aggregation of insulin at 40° C. This aggregation of protein was measured by absorption at 360 nm after heat treatment at 40° C. in a Perkin Elmer spectrophotometer. Aggregation of insulin was measured in the presence and in the absence of laser light. Test samples were irradiated with a He—Ne laser having power density is 0.63 watts/cm^2 and operating at a wavelength 632.8 nm. […]

[2] = Thermal aggregation of hemoglobin (absorption/scattering at 360 nm); settings: 0.1 mg/ml, 60° C., 20 min, He-Ne laser 632.8 nm, 0.63 watts/cm^2
Source text: as §1
Thermal aggregation of hemoglobin. Hemoglobin was purchased from Sigma-Aldrich (St. Louis, Mo.) and a 0.5 mg/ml stock solution was prepared by mixing with 100 mM phosphate buffer solution of pH 7.2. The aggregation of a 0.1 mg/ml hemoglobin solution was observed by measuring the absorption of radiation of 360 nm wavelength with a time duration of 20 min in a Perkin Elmer spectrophotometer at 60° C. Test samples were irradiated with He—Ne laser having power density is 0.63 watts/cm^2 and operating at a wavelength 632.8 nm. A control sample was subjected to identical conditions expect laser irradiation was not performed. […]

[3] = Dynamic light scattering of hemoglobin; settings: heated at 60° C. for 20 min without red laser light
Method: FIG. 4 represents the dynamic light scattering pattern of protein hemoglobin in the presence and absence of red laser light at 60° C. The hydrodynamic diameter of hemoglobin at 25° C. is 5.6 nm. When this protein solution was heated at 60° C. without red laser light for 20 min, the hydrodynamic diameter increases to 4801.0 nm. However, in the presence of red laser light the diameter increases to only 255.0 nm.

[4] = Thermal aggregation of citrate synthase (OD at 360 nm); settings: for change in aggregation upon laser exposure: FIG. 5
Source text: as §1
Thermal Aggregation of Citrate Synthase. Citrate synthase was purchased from Sigma-Aldrich and a 0.5 mg/ml stock solution was prepared by mixing with 100 mM phosphate buffer solution of pH 7.2. Citrate synthase was readily converted to its aggregated state from a native state at 45° C. The aggregation profile of the protein (0.1 mg/ml) was measured by measuring optical density (OD) at 360 nm in a Perkin Elmer spectrophotometer in 100 mM phosphate buffer of pH 7.2. Test samples were irradiated with a He—Ne laser having power density is 0.63 Watt/cm^2 and operating at a wavelength 632.8 nm. A control sample was subjected to identical conditions expect that laser irradiation was not performed. The results are shown in FIG. 3 and indicate that irradiation with laser light reduced the formation of protein aggregates by about 40% compared to an non-irradiated control sample.
A comparative study showing the effect of the power of the red laser on the aggregation of citrate synthase was conducted. Thermal aggregation of citrate synthase was determined by measuring absorption of radiation of 360 nm wavelength at 45° C. Aggregation of control samples (in absence of laser treatment) was considered as 100% aggregation while aggregation of the treated protein of the test samples was calculated relative to the 100% aggregation of the control samples. […] Thus, increasing the energy input to the test samples beyond that needed to increase the activation energy for unfolding the protein appears to generate heat energy that increases aggregation. As such, suitable methods for preventing protein aggregation use a low-power red laser.

## insulin
[1]
  reduction of formation of insulin aggregates compared to non-irradiated control: about 10%

## hemoglobin
[2]
  reduction of formation of hemoglobin aggregates compared to non-irradiated control: about 25%
[3]
  hydrodynamic diameter: 4801.0 nm

B1: citrate synthase (protein, UniProt P00889 28-464, looked up)
Citrate synthase, …: ASSTNLKDILADLIPKEQARIKTFRQQHGNTVVGQITVDMMYGGMRGMKGLVYETSVLDPDEGIRFRGYSIPECQKMLPKAKGGEEPLPEGLFWLLVTGQIPTEEQVSWLSKEWAKRAALPSHVVTMLDNFPTNLHPMSQLSAAITALNSESNFARAYAEGIHRTKYWELIYEDCMDLIAKLPCVAAKIYRNLYREGSSIGAIDSKLDWSHNFTNMLGYTDAQFTELMRLYLTIHSDHEGGNVSAHTSHLVGSALSDPYLSFAAAMNGLAGPLHGLANQEVLVWLTQLQKEVGKDVSDEKLRDYIWNTLNSGRVVPGYGHAVLRKTDPRYTCQREFALKHLPHDPMFKLVAQLYKIVPNVLLEQGKAKNPWPNVDAHSGVLLQYYGMTEMNYYTVLFGVSRALGVLAQLIWSRALGFPLERPKSMSTDGLIKLVDSK
notes: a beta sheet-rich enzyme which readily aggregates by thermal treatment at 45° C; purchased from Sigma-Aldrich
[4]; 0.1 mg/ml, 45° C., He-Ne laser 632.8 nm, 0.63 Watt/cm^2
  reduction of formation of protein aggregates compared to non-irradiated control: about 40%
[4]; 45° C., red laser 15 mW, 1.9 watts/cm^2
  aggregation relative to control samples (100%): approximately 145%
[4]; 45° C., red laser 632.8 nm, 5 mW, 0.63 watts/cm^2
  aggregation relative to control samples (100%): 60%
[4]; high power (15 mW) red laser
  change in aggregation upon laser exposure: increase in aggregation
[4]; low power (5 mW) red laser
  change in aggregation upon laser exposure: decrease in the aggregation
